Experimental data from publication PMC10542344 (2023).
Read-outs that look alike come from different tables or passages of the source.

Legend:
Test in all cases: SPR
[1] = biological target: T1, human IL-17A (recombinant) (human, UniProt Q16552 24-155)
[2] = biological target: T1, human IL-17A (recombinant); remark: listed apart in the source
[3] = biological target: T1, human IL-17A (recombinant); remark: listed apart in the source

T1 sequence (Q16552 24-155): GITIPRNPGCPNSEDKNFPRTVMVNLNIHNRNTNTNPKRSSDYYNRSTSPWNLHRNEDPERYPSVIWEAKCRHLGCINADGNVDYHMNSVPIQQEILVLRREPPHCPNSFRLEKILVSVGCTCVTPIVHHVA

Binder	koff [1] [s⁻¹]	Kd [2] [nM]	koff [3] [s⁻¹]
BDG11.007 (human IgG1) (antibody, V domains shown) VH: EVQLVQSGAEVKKPGESLKISCKGSGYSFTSYWIGWVRQMPGKGLEWMGIIYPSDSDTRYSPSFQGQVTISADKSISTAYLQWSSLKASDTAMYYCARYPNYGAFDIWGQGTMVTVSS VL: EIVLTQSPATLSLSPGERATLSCRASQSVWSYLAWYQQKPGQAPRLLIYDASNRATGIPARFSGSGSGTDFTLTISSLEPEDFAVYYCQQYFNWGWPFGQGTKLEIK	0.0045	2.61	–
BDG11.006 (human IgG1) (antibody, V domains shown) VH: EVQLVQSGAEVKKPGESLKISCKGSGYSFTSYWIGWVRQMPGKGLEWMGIIYPSDSDTRYSPSFQGQVTISADKSISTAYLQWSSLKASDTAMYYCARYPNYGAFDIWGQGTMVTVSS VL: EIVLTQSPATLSLSPGERATLSCRASQSVWSYLAWYQQKPGQAPRLLIYDASNRATGIPARFSGSGSGTDFTLTISSLEPEDFAVYYCQQYFYNGWPFGQGTKLEIK	0.0009	0.697	–
BDG11.001 (clone 11.4C_11.001 as soluble human IgG1) (antibody, V domains shown) VH: EVQLVQSGAEVKKPGESLKISCKGSGYSFTSYWIGWVRQMPGKGLEWMGIIYPSDSDTRYSPSFQGQVTISADKSISTAYLQWSSLKASDTAMYYCARYPNYGAFDIWGQGTMVTVSS VL: EIVLTQSPATLSLSPGERATLSCRASQSVWSYLAWYQQKPGQAPRLLIYDASNRATGIPARFSGSGSGTDFTLTISSLEPEDFAVYYCQQYFYWGWPFGQGTKLEIK	–	–	0.000634
BDG11.004 (human IgG1) (antibody, V domains shown) VH: EVQLVQSGAEVKKPGESLKISCKGSGYSFTSYWIGWVRQMPGKGLEWMGIIYPSDSDTRYSPSFQGQVTISADKSISTAYLQWSSLKASDTAMYYCARYPNYGAFDIWGQGTMVTVSS VL: EIVLTQSPATLSLSPGERATLSCRASQSVSSYLAWYQQKPGQAPRLLIYDASNRATGIPARFSGSGSGTDFTLTISSLEPEDFAVYYCQQYFYWGWPFGQGTKLEIK	0.00221	8.69	–
BDG11.003 (human IgG1) (antibody, V domains shown) VH: EVQLVQSGAEVKKPGESLKISCKGSGYSFTSYWIGWVRQMPGKGLEWMGIIYPSDSDTRYSPSFQGQVTISADKSISTAYLQWSSLKASDTAMYYCARYPNYGAFDIWGQGTMVTVSS VL: EIVLTQSPATLSLSPGERATLSCRASQSVFSYLAWYQQKPGQAPRLLIYDASNRATGIPARFSGSGSGTDFTLTISSLEPEDFAVYYCQQYFYWGWPFGQGTKLEIK	0.000641	0.935	–
